{
  "source": "patent EP4635976A1",
  "about": "(Medigene Immunotherapies GmbH, dated 2025)",
  "assay_in_all_cases": "cell-based or functional assay",
  "key": {"[1]": {"target": "mismatched peptide #84 …"}, "[2]": {"target": "mismatched peptide #221 …"}, "[3]": {"target": "mismatched peptide #228 …"}, "[4]": {"target": "mismatched peptide #257 …"}, "[5]": {"target": "mismatched peptide #76 …"}, "[6]": {"target": "mismatched peptide #244 …"}, "[7]": {"target": "mismatched peptide #246 …"}, "[8]": {"target": "mismatched peptide #41 …"}, "[9]": {"target": "mismatched peptide #79 …"}, "[10]": {"target": "mismatched peptide #31 …"}, "[11]": {"target": "mismatched peptide #243 …"}, "[12]": {"target": "mismatched peptide #324 …"}, "[13]": {"target": "mismatched peptide #15 …"}, "[14]": {"target": "mismatched peptide #45 …"}, "[15]": {"target": "mismatched peptide #278 …"}, "[16]": {"target": "mismatched peptide #62 …"}, "[17]": {"target": "mismatched peptide #323 …"}, "[18]": {"target": "mismatched peptide #160 …"}, "[19]": {"target": "mismatched peptide #247 …"}, "[20]": {"target": "mismatched peptide #9 …"}, "[21]": {"target": "mismatched peptide #239 …"}, "[22]": {"target": "mismatched peptide #236 …"}, "[23]": {"target": "mismatched peptide #280 …"}, "[24]": {"target": "mismatched peptide #240 …"}, "[25]": {"target": "mismatched peptide #47 …"}, "[26]": {"target": "mismatched peptide #265 …"}, "[27]": {"target": "mismatched peptide #116 …"}},
  "data": [
    {"binder": "NY-ESO specific TCR (T11.8-10-17) with Uni-TABS epitope V1 at A245 in loop 2 of TRBC (TCR) TCR alpha: QKEVEQNSGPLSVPEGAIASLNCTYSDRGSQSFFWYRQYSGKSPELIMFIYSNGDKEDGRFTAQLNKASQYVSLLIRDSQPSDSATYLCAADDKIIFGKGTRLHILPNIQNPDPAVYQLRDSKSSDKSVCLFTDFDSQTNVSQSKDSDVYITDKTVLDMRSMDFKSNSAVAWSNKSDFACANAFNNSIIPEDTFFPSSDVPCDVKLVEKSFETDTNLNFQNLSVIGFRILLLKVAGFNLLMTLRLWSS TCR beta: DAGVIQSPRHEVTEMGQEVTLRCKPISGHDYLFWYRQTMMRGLELLIYFNNNVPIDDSGMPEDRFSAKMPNASFSTLKIQPSEPRDSAVYFCASSRGGSGYTFGSGTRLTVVEDLNKVFPPEVAVFEPSKAEIAHTQKATLVCLATGFFPDHVELSWWVNGKEVHSGVSTDPQPLKEQPALNDSRYCLSSRLRVSATFWQNPRNHFRCQVQFYGLSENDEWTQDRAGSGDKGEVPKDRFSAGSGKPVTQIVSAEAWGRADCGITSASYHQGVLSATILYEILLGKATLYAVLVSALVLMAMVKRKDF", "values": [
      {"measurement": "IFN-γ release (IFNg-ELISA), donor MIT 045", "setting": "[1]", "result": 0, "unit": "pg/mL"},
      {"measurement": "IFN-γ release (IFNg-ELISA), donor MIT 045", "setting": "[2]", "result": 0, "unit": "pg/mL"},
      {"measurement": "IFN-γ release (IFNg-ELISA), donor MIT 045", "setting": "[3]", "result": 0, "unit": "pg/mL"},
      {"measurement": "IFN-γ release (IFNg-ELISA), donor MIT 045", "setting": "[4]", "result": 0, "unit": "pg/mL"},
      {"measurement": "IFN-γ release (IFNg-ELISA), donor MIT 045", "setting": "[5]", "result": 0, "unit": "pg/mL"},
      {"measurement": "IFN-γ release (IFNg-ELISA), donor MIT 045", "setting": "[6]", "result": 0, "unit": "pg/mL"},
      {"measurement": "IFN-γ release (IFNg-ELISA), donor MIT 045", "setting": "[7]", "result": 0, "unit": "pg/mL"},
      {"measurement": "IFN-γ release (IFNg-ELISA), donor MIT 045", "setting": "[8]", "result": 0, "unit": "pg/mL"},
      {"measurement": "IFN-γ release (IFNg-ELISA), donor MIT 045", "setting": "[9]", "result": 0, "unit": "pg/mL"},
      {"measurement": "IFN-γ release (IFNg-ELISA), donor MIT 045", "setting": "[10]", "result": 0, "unit": "pg/mL"},
      {"measurement": "IFN-γ release (IFNg-ELISA), donor MIT 045", "setting": "[11]", "result": 0, "unit": "pg/mL"},
      {"measurement": "IFN-γ release (IFNg-ELISA), donor MIT 045", "setting": "[12]", "result": 0, "unit": "pg/mL"},
      {"measurement": "IFN-γ release (IFNg-ELISA), donor MIT 045", "setting": "[13]", "result": 0, "unit": "pg/mL"},
      {"measurement": "IFN-γ release (IFNg-ELISA), donor MIT 045", "setting": "[14]", "result": 0, "unit": "pg/mL"},
      {"measurement": "IFN-γ release (IFNg-ELISA), donor MIT 045", "setting": "[15]", "result": 0, "unit": "pg/mL"},
      {"measurement": "IFN-γ release (IFNg-ELISA), donor MIT 045", "setting": "[16]", "result": 0, "unit": "pg/mL"},
      {"measurement": "IFN-γ release (IFNg-ELISA), donor MIT 045", "setting": "[17]", "result": 0, "unit": "pg/mL"},
      {"measurement": "IFN-γ release (IFNg-ELISA), donor MIT 045", "setting": "[18]", "result": 0, "unit": "pg/mL"},
      {"measurement": "IFN-γ release (IFNg-ELISA), donor MIT 045", "setting": "[19]", "result": 0, "unit": "pg/mL"}
    ]},
    {"binder": "NY-ESO specific TCR (T11.8-10-17) with Uni-TABS epitope V1 at A199 in loop 1 of TRBC (TCR) TCR alpha: QKEVEQNSGPLSVPEGAIASLNCTYSDRGSQSFFWYRQYSGKSPELIMFIYSNGDKEDGRFTAQLNKASQYVSLLIRDSQPSDSATYLCAADDKIIFGKGTRLHILPNIQNPDPAVYQLRDSKSSDKSVCLFTDFDSQTNVSQSKDSDVYITDKTVLDMRSMDFKSNSAVAWSNKSDFACANAFNNSIIPEDTFFPSSDVPCDVKLVEKSFETDTNLNFQNLSVIGFRILLLKVAGFNLLMTLRLWSS TCR beta: DAGVIQSPRHEVTEMGQEVTLRCKPISGHDYLFWYRQTMMRGLELLIYFNNNVPIDDSGMPEDRFSAKMPNASFSTLKIQPSEPRDSAVYFCASSRGGSGYTFGSGTRLTVVEDLNKVFPPEVAVFEPSKAEIAHTQKATLVCLATGFFPDHVELSWWVNGKEVHSGVSTDPQPLKEQPAGSGDKGEVPKDRFSAGSGLNDSRYCLSSRLRVSATFWQNPRNHFRCQVQFYGLSENDEWTQDRAKPVTQIVSAEAWGRADCGITSASYHQGVLSATILYEILLGKATLYAVLVSALVLMAMVKRKDF", "values": [
      {"measurement": "IFN-γ release (IFNg-ELISA), donor MIT038", "setting": "[20]", "result": 258, "unit": "pg/mL"},
      {"measurement": "IFN-γ release (IFNg-ELISA), donor MIT038", "setting": "[2]", "result": 900, "unit": "pg/mL"},
      {"measurement": "IFN-γ release (IFNg-ELISA), donor MIT 045", "setting": "[2]", "result": 889, "unit": "pg/mL"},
      {"measurement": "IFN-γ release (IFNg-ELISA), donor MIT038", "setting": "[21]", "result": 312, "unit": "pg/mL"},
      {"measurement": "IFN-γ release (IFNg-ELISA), donor MIT038", "setting": "[3]", "result": 484, "unit": "pg/mL"},
      {"measurement": "IFN-γ release (IFNg-ELISA), donor MIT 045", "setting": "[3]", "result": 1200, "unit": "pg/mL"},
      {"measurement": "IFN-γ release (IFNg-ELISA), donor MIT038", "setting": "[4]", "result": 407, "unit": "pg/mL"},
      {"measurement": "IFN-γ release (IFNg-ELISA), donor MIT038", "setting": "[5]", "result": 825, "unit": "pg/mL"},
      {"measurement": "IFN-γ release (IFNg-ELISA), donor MIT 045", "setting": "[5]", "result": 939, "unit": "pg/mL"},
      {"measurement": "IFN-γ release (IFNg-ELISA), donor MIT038", "setting": "[6]", "result": 387, "unit": "pg/mL"},
      {"measurement": "IFN-γ release (IFNg-ELISA), donor MIT 045", "setting": "[6]", "result": 261, "unit": "pg/mL"},
      {"measurement": "IFN-γ release (IFNg-ELISA), donor MIT038", "setting": "[7]", "result": 345, "unit": "pg/mL"},
      {"measurement": "IFN-γ release (IFNg-ELISA), donor MIT038", "setting": "[22]", "result": 476, "unit": "pg/mL"},
      {"measurement": "IFN-γ release (IFNg-ELISA), donor MIT 045", "setting": "[22]", "result": 400, "unit": "pg/mL"},
      {"measurement": "IFN-γ release (IFNg-ELISA), donor MIT038", "setting": "[23]", "result": 256, "unit": "pg/mL"},
      {"measurement": "IFN-γ release (IFNg-ELISA), donor MIT038", "setting": "[24]", "result": 386, "unit": "pg/mL"},
      {"measurement": "IFN-γ release (IFNg-ELISA), donor MIT038", "setting": "[8]", "result": 555, "unit": "pg/mL"},
      {"measurement": "IFN-γ release (IFNg-ELISA), donor MIT 045", "setting": "[8]", "result": 680, "unit": "pg/mL"},
      {"measurement": "IFN-γ release (IFNg-ELISA), donor MIT038", "setting": "[9]", "result": 370, "unit": "pg/mL"},
      {"measurement": "IFN-γ release (IFNg-ELISA), donor MIT 045", "setting": "[25]", "result": 530, "unit": "pg/mL"},
      {"measurement": "IFN-γ release (IFNg-ELISA), donor MIT038", "setting": "[10]", "result": 2420, "unit": "pg/mL"},
      {"measurement": "IFN-γ release (IFNg-ELISA), donor MIT 045", "setting": "[10]", "result": 1560, "unit": "pg/mL"},
      {"measurement": "IFN-γ release (IFNg-ELISA), donor MIT038", "setting": "[11]", "result": 499, "unit": "pg/mL"},
      {"measurement": "IFN-γ release (IFNg-ELISA), donor MIT 045", "setting": "[11]", "result": 356, "unit": "pg/mL"},
      {"measurement": "IFN-γ release (IFNg-ELISA), donor MIT038", "setting": "[12]", "result": 757, "unit": "pg/mL"},
      {"measurement": "IFN-γ release (IFNg-ELISA), donor MIT 045", "setting": "[12]", "result": 628, "unit": "pg/mL"},
      {"measurement": "IFN-γ release (IFNg-ELISA), donor MIT038", "setting": "[13]", "result": 520, "unit": "pg/mL"},
      {"measurement": "IFN-γ release (IFNg-ELISA), donor MIT 045", "setting": "[13]", "result": 306, "unit": "pg/mL"},
      {"measurement": "IFN-γ release (IFNg-ELISA), donor MIT038", "setting": "[14]", "result": 1410, "unit": "pg/mL"},
      {"measurement": "IFN-γ release (IFNg-ELISA), donor MIT 045", "setting": "[14]", "result": 1520, "unit": "pg/mL"},
      {"measurement": "IFN-γ release (IFNg-ELISA), donor MIT038", "setting": "[26]", "result": 400, "unit": "pg/mL"},
      {"measurement": "IFN-γ release (IFNg-ELISA), donor MIT038", "setting": "[15]", "result": 442, "unit": "pg/mL"},
      {"measurement": "IFN-γ release (IFNg-ELISA), donor MIT038", "setting": "[16]", "result": 942, "unit": "pg/mL"},
      {"measurement": "IFN-γ release (IFNg-ELISA), donor MIT 045", "setting": "[16]", "result": 918, "unit": "pg/mL"},
      {"measurement": "IFN-γ release (IFNg-ELISA), donor MIT038", "setting": "[17]", "result": 3170, "unit": "pg/mL"},
      {"measurement": "IFN-γ release (IFNg-ELISA), donor MIT 045", "setting": "[17]", "result": 3000, "unit": "pg/mL"},
      {"measurement": "IFN-γ release (IFNg-ELISA), donor MIT 045", "setting": "[27]", "result": 257, "unit": "pg/mL"},
      {"measurement": "IFN-γ release (IFNg-ELISA), donor MIT038", "setting": "[18]", "result": 2800, "unit": "pg/mL"},
      {"measurement": "IFN-γ release (IFNg-ELISA), donor MIT 045", "setting": "[18]", "result": 2840, "unit": "pg/mL"},
      {"measurement": "IFN-γ release (IFNg-ELISA), donor MIT038", "setting": "[19]", "result": 537, "unit": "pg/mL"},
      {"measurement": "IFN-γ release (IFNg-ELISA), donor MIT 045", "setting": "[19]", "result": 372, "unit": "pg/mL"}
    ]}
  ]
}
